Measurements taken from article PMC11208146, “Molecular basis for transposase activation by a dedicated AAA+ ATPase” (Nature, 2024).

Molecular target: IstA transposase, wild type, full length (IS5376, Geobacillus stearothermophilus) (Geobacillus stearothermophilus)
Assay: cryo-EM structure; IstA pre-incubated with strand-transfer-complex DNA (3.3:1), then IstB E167Q (5:1 to IstA), 37 °C; 20 mM HEPES pH 7.5, 150 mM NaCl, 5 mM MgCl2, 1 mM ATP, 1 mM DTT; 3.6 Å

IstA transposase, wild type, full length (IS5376, Geobacillus stearothermophilus) (enzyme)
stoichiometry N: 4
